The text below walks through data of publication PMC4344312.

Series [1] can be described thus: cell surface ELISA, anti-hGLP-1R, unpermeabilised cells. Particulars: glycan lost; control: SP-VSVG WT, untreated.
Series [2] can be described thus: confocal immunofluorescence, GFP and surface anti-hGLP-1R. Particulars: glycan lost; control: SP-VSVG WT, untreated.
The nature of series [3]: total lysate immunoblot, anti-GFP. Particulars: glycan lost; control: SP-VSVG WT. A general note: A western blot detects proteins with antibodies after separation by electrophoresis.

B1: human glucagon like peptide-1 receptor (hGLP-1R): N63, 82, 115L (protein)
parent chain: MAGAPGPLRLALLLLGMVGRAGPRPQGATVSLWETVQKWREYRRQCQRSLTEDPPPATDLFCNRTFDEYACWPDGEPGSFVNVSCPWYLPWASSVPQGHVYRFCTAEGLWLQKDNSSLPWRDLSECEESKRGERSSPEEQLLFLYIIYTVGYALSFSALVIASAILLGFRHLHCTRNYIHLNLFASFILRALSVFIKDAALKWMYSTAAQQHQWDGLLSYQDSLSCRLVFLLMQYCVAANYYWLLVEGVYLYTLLAFSVLSEQWIFRLYVSIGWGVPLLFVVPWGIVKYLYEDEGCWTRNSNMNYWLIIRLPILFAIGVNFLIFVRVICIVVSKLKANLMCKTDIKCRLAKSTLTLIPLLGTHEVIFAFVMDEHARGTLRFIKLFTELSFTSFQGLMVAILYCFVNNEVQLEFRKSWERWRLEHLHIQRDSSMKPLKCPTSSLSSGATAGSSMYTATCQASCS
Take B1: the “localisation_or_trafficking, percent_of_wt” value in series [1] is “abolishes”. For the same protein, in series [2], the localisation_or_trafficking entry was “abolishes”. Besides, the expression_or_secretion result in series [3] is “no change”.

B2: human glucagon like peptide-1 receptor (hGLP-1R): tunicamycin (protein)
parent chain: B1 parent chain
In the case of B2, in series [1], the “localisation_or_trafficking, percent_of_wt” value was “abolishes”. In addition, the localisation_or_trafficking result in series [2] was “abolishes”.
